Measurements from FireProtDB (doi:10.1016/s0022-2836(02)00630-7).

Settings: Escherichia coli (strain K12), pH 7, CD, Potassium phosphate 10 mM, reversible: yes

With “Phosphocarrier protein HPr wild type, P0AA04” the denaturant m value (25 °C, Urea) was 1.06 kcal/mol/M, the “denaturant midpoint (higher = more stable)” value (25 °C, Urea) was 4.34 M and the Tm (Thermal) was 63.4 °C. For the same substance, the “unfolding enthalpy (van 't Hoff)” value (Thermal) was 75.8 kcal/mol.
